From patent publication US20110184016A1 come the findings set out here.

Experiment [1] deals with human protease-activated receptor 2 (human) (UniProt P55085). As to the kind of experiment: cell-based or functional assay.
Experiment [2] has as its target T1, human protease-activated receptor 4 (human) (UniProt Q96RI0).
T1 sequence (looked up): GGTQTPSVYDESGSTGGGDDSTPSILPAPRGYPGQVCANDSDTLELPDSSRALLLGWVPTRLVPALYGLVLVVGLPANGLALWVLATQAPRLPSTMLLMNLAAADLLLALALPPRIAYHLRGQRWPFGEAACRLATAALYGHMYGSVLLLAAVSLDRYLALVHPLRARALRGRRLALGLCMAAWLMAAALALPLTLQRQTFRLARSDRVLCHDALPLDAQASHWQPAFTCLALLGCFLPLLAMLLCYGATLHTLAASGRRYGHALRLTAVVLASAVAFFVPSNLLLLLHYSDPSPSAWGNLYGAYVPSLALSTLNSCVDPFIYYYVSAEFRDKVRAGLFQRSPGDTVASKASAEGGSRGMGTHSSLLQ
As to the kind of experiment: cell-based or functional assay.

Chain of recombinant human cathepsin S (P25774 115-331): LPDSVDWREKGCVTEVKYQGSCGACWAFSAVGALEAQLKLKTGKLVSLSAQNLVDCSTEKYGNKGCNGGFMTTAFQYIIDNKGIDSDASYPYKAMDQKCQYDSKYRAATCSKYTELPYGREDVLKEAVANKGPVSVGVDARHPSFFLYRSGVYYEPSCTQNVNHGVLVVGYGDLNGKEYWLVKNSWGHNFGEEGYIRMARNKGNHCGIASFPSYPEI

In the case of “recombinant human cathepsin S (from UniProt P25774 115-331) (enzyme)”, the calcium flux (ratiometric Fura-2 imaging, transfected HeLa cells) in experiment [1] and in experiment [2] was 30 nM in each case.
